Target: the molecule itself
Assay: SEC

B1: LexAPaS125A, full-length P. aeruginosa LexA carrying the S125A mutation in the catalytic dyad (natural protein)
chain: MQKLTPRQAEILSFIKRCLEDHGFPPTRAEIAQELGFKSPNAAEEHLKALARKGAIEMTPGASRGIRIPGFEPHAANDDEGLPVIGRVAAGAPILAEQNIEESCRINPAFFNPRADYLLRVRGMAMKDIGILDGDLLAVHVTREARNGQVVVARIGEEVTVKRFKREGSKVWLLAENPEFAPIEVDLKEQELIIEGLSVGVIRR
- stoichiometry N: 2
